Reference: the DeepSol protein solubility set

Assay: soluble on expression in E. coli; label from the status in PepcDB or PDB records
For “MSLKDQDIFELIEPSTDINDIIMPENTKELLENILKQQDKKVLERLHSWGIKSNKNIEAKIIFYGPAGTGKTMSALAMAKSMKKSVLSFDCSKILSKWVGESEQNVRKIFDTYKNIVQTCKQSPILLLNEADQFLSTRVDGSSGSDKMHNQMQNIFLEQIERFSGVIIATTNFLESLDSAFSRRFDYKIEFKKPDFKDRLKIWEKFLPKKALFEKDFDINILSNYELSGAQILMVVKNTALKVAVSKDGVFKIQDFIESIQKELNSSFDKSKIVGFEGHHHHHH”, the “soluble on expression in E. coli” value was “soluble”. For “MSLSRRIGIIDTTLRDAQQCLWATRMTAGMMDPIAQALDEAGFDMIDFMAPVQFDVCVRYLREDPFEKARHFRKRFRNTPMRSYCRSKSLVGFSMVPDDMVELWIDCLAANGFSAVGTLDSLLDVDNMKVSVGRAKKIGIKSIGALVFCESPLHTDALYAGTAAELVRCGVDGIMLKDSGALLTIERIRTLIPALRAAVGDIPIEVHSHSNTGLVQRVYLDAADLGIDQLHTSIAPLAGGVAQPSIQNMTRNLAQRGYRTDVDMARVEEISAYLHRLAARYDFPLGKEGHHHHHH”, the “soluble on expression in E. coli” value was “not soluble”. With “MGSDKIHHHHHHMEFHEIDRMAKKLGADIFGVADLDLLREYETFPENLLDSFDFGISIGVKLPDPLFDMLPDSRNLYSRYYVVANDMLDRIAFEISRAIESEGYEALPIPASKVLSDLHWRSYVSHKAIARAAGVGWVGRNLLLITPQFGPRVRLASVLTDMPLKAGKPARNRCGVCRECIDSCITQALRYSEFDDYPERDEVFEVDKCAAKLKEFASNPDIGTMVCGICIKVCPWGKLGNKTKGN” the “soluble on expression in E. coli” value was “not soluble”. In the case of “MGSDKIHHHHHHMIRLDNISKQNGHQILFIEASMGVQKGEKVGLVGPNGAGKTTLFRMITGQEQPDDGIVSIDAGMRIGYFSQDVGEMSGQSAVAAVMDGVGPVSALAAEMATLEAAMVDPDQADQLDAVMERYGEVLERFQELDGYALEARAREVLAGLSFSQERMDADVGLLSGGWKMRVALARILLMRPDGMLLDEPSNHLDLESLIWLESFLKNYDGALLMTSHDRAFMNRIIGKVIEIDAGSLITYSGDLDFYDQQRALSEAQRQAQYERQQAMLAKEIKFIEKFKARASHAAQVQSRVKKLDKIERVEAPRRRQTVQFEFQSPPRSGEDVISLRGVHKGYGERPIYQDLDFLVRRKERWAVLGANGAGKSTLLKLVAGDTKPDQGVVNIGASVKMGYFAQHSMDLLDGEETIFESLERSFPQAGQGALRTLAGCFGFSGDDVEKPCRVLSGGEKARLVMAKMLFDPPNLLVLDEPTNHLDMVTKEMLVASLADFEGTMLFVSHDRHFLAALSNRVLELTPEGIHQYGGGYTEYVARTGQEAPGLHPGG”, the “soluble on expression in E. coli” value is reported as “not soluble”. With “MAHHHHHHMPFSLGELQNVFLDALTGCPPDAPQQTRDTAVTVAGASIFAGSWQPLESTRVPVRAYLRGTGEFDTEDSCRRAVMRVVDATLNDVLNDDAVNAFIGAKACESADIVGACEHILRKYLLWMLDGYLHYDGTPQCPFYDALKSTVCAFSVEWGQTFGPMFAEAQSPDEFFSLLVTRGAQHHATAVATNPDDAKVRMATAMSIQVFLMAKTYSPSTPFPSRVAL” the “soluble on expression in E. coli” value was “soluble”. With “MAHHHHHHMGKLSKDRRDIYYRKAKESGYRARSSFKLIQINEKFGILKLFKPDIYNCNNEKDLINIYNEHYCYNIVDLCAAPGSWSQVLKNICLYNYYQILYMINKYNNNENIKNIQHEEFLNKFSLYINYNEELENKIKNLKIKCSNIKEPNIVAVDLQEIGNMNYVKIIQGDITKMSTIDKILKCMNNKINSDEENVNVFYNMEQQKKENNFSYAHTVVSDGAPDITGMNDIDEFIQSQLILSSLKVCCSVLKVGGNFISKIFRGEHTGLLILHLNKFFQRVYICKPQSSRNKSLESFLVCLNFSLPRSNIISMNNHNAENKINDKYLSEEQMRKFHAQLITYKDKDDQESEEKKENYNSHDNIDYNLCHTTKHNKNISDEIETKEVSSPYEHNNIVENNVTPNSDMLKNINKIINEYDNDKNNLDIFNFYCSDSDEEIKYFNSEDEEVVNNYISSESFMSNKLFSFIATDNYYDSDKSYLLPENYVRHEPQLMPLKPPYMLSLQKKRQEVKK” the “soluble on expression in E. coli” value was “not soluble”. For “MAKNGGFSLFAKKEKRFIFEGRHSASDKLVNGEVSAFTEEEARKKLAKRGIRPLQITRVKTSSKRKITQEDITVFTRQLSTMIKAGLPLMQAFEIVARGHGNPSMTEMLMEIRGEVEQGSSLSRAFSNHPKYFDRFYCNLVAAGETGGVLESLLDKLAIYKEKTQAIRKKVKTALT”, the “soluble on expression in E. coli” value was “not soluble”. For “MSLETSRNLSNFFDVSADLLSISNMQGRFVKVNRAWETALGYPIEALEGVPFLPLLHPEDQQSTRVQINRIEVDDEVNGFVNRYRRADGSYCQLEWRARRCDDLVFGVARDVTERLRIQAEMAEARDAAEAANRAKNDFLANMSHEIRTPLNGVIALAAALDETPLTSKQAEMVAMIRRSGETLERLVSDILDVSKIEAGQMTLQPQAFDLGALVDGLLDVTRLRAKEKGVAVRLERSPTAAGGFLGDSVRIGQVLSNLFSNAVKFTDQGEVIVRVDVEEAGNGQAARLFVEVEDTGVGFDAEKAEMIFQRFNQADSTITRRFGGSGLGLSISKTLVEMMGGEITAQSSPGAGSLFRVTLPLSRTQMGPDAEIDAPRSAAPGEGLKVLLAEDHPINQRVVQLILEPCGAAVTVVENGAQAVEAMASGAFDVVLMDMQMPVMDGLAATRAIRAREGEGQRTPIIMLSANAMDVHRREALQAGADLHVPKPITIAALLDSIGQVMAREGHHHHHH”, the “soluble on expression in E. coli” value was “soluble”. For “YVSTDGDDIYVGKNNKQNDYLTNKKAKKTHTWLHTKDIPGSHVVIFNDAPSDTTIKEAAMLAGYFSKAGNSGQIPVDYTLIKNVHK”, the “soluble on expression in E. coli” value was “not soluble”. For “PPESDGFSDVRKVGYLRKPKSMHKRFFVLRAASEAGGPARLEYYENEKKWRHKSSAPKRSIPLESCFNINKRADSKNKHLVALYTRDEHFAIAADSEAEQDSWYQALLQLHNRAKGHHDGAAALGAGGGGGSCSGSSGLGEAGEDLSYGDVPPGPAFKEVWQVILKPKGLGQTKNLIGIYRLCLTSKTISFVKLNSEAAAVVLQLMNIRRCGHSENFFFIEVGRSAVTGPGEFWMQVDDSVVAQNMHETILEAMRAMSDEFRPR”, the “soluble on expression in E. coli” value was “soluble”. For “MSLQMKNYQQTLKRMSDRSSGFLGVGVHKQKLGIGAIAIVVTDKDGEIVDCEMMSGVTVFSRFKPLTDFVGMSLNECKVLLQNESVDIALHGALKKIEEQMNRKENVTTEGHHHHHH”, the “soluble on expression in E. coli” value was “not soluble”. For “MTGRPEDSVIDIYQRHGAAWAKLRGDRLAEGGWLDRFCELLPATASVLDIGCGSGLPIARELVRRGFDVTGVDGASTMLALFRRNLPGTPAHLADMRELALGRRFDGLLAWDSFFHLSPADQRAMFRRFQAHAAAGAALMFTSGPAEGSAIGELAGDRLYHGSLGSDDYRALLDASGFEGVDHIVEDPTCGYRTIWLARQRRLEHHHHHH”, the “soluble on expression in E. coli” value was “not soluble”. With “EAPFTLKVNTLPLNFDKAEHHRKFQIHINVSYIGERPNSNMVIVDVKMVSGFIPVKPSVKKLQDQSNIQRTEVNTNHVLIYIEKLTNQTMGFSFAVEQDIPVKNLKPAPVKVYDYYETDEFAIEEYSAPFSSDS” the “soluble on expression in E. coli” value was “soluble”. With “MSDVENASLPPAIFIMGPTASGKTALAMTLREYLPVELISVDSALIYKDMDIGTAKPSADELARAPHRLIDILDPTESYSAADFRRDALREMADITAAGRIPLLVGGTMLYFKALLEGLSPLPPADAAVRQRIEEQAKEIGWEAMHRQLSEIDPTAAIRIHPNDPQRLSRALEVFFISGNTLTELTKTSGDALPYQVHQFAIAPAMRELLHQRIEQRFHQMLAAGFETEARALFARHDLHTDMPSIRCVGYRQMWSYLSGEIDYDEMVYRGVCATRQLAKRQMTWLRGWDDVCWLDSENPTEALDKVIQVVSALEHHHHHH” the “soluble on expression in E. coli” value was “soluble”. For “MGGDRAPDEILKGALLASKEVEGEIVLIGPEEIVKNKGLPFVSASEIVKMDDPPLEVLRKKNSSMHMGLKLLSEGKVDAFVSAGATGPLFLGATSIVGKLEGIERPALGVAVPSLKGATVLIDAGANAKVRPEHLVDFAFMGIAYSKVLGAENPRVGLLNMGSEENKGPDDIKRAYQLLKEFLGDTFFGNVEGHDINLGTVDVVVADGFSGNVALKTMEGTAKLVTSVLKESIKDGGFLSLLGALLMKRSFDKMKEKLDPRSYGGTFILGVKGIVVKAHGSSDAKAIKHAIKVAEKGIRVNIVQEIERGISHVRNSGDGR”, the “soluble on expression in E. coli” value was “soluble”. With “MGSDKIHHHHHHVLAPSSADTLQGLPYEVVSYRKTYESGYRSDWHSHPRHQIIYSVSGLMMTDTEGVRWAVPSGFGLIVPAGIAHTTKMIGDVSIETLYVSPSSRGRSAFESCRVVSISAMLASLISELCREELRDRNSRKAFHLRQLIFLELSDAPTSHLAVKYPVDPQLRRVCDALIADPANSWTIDQWAFEIGKSRRSFTRAFYSQTDQTFRQWTQRLRCQLALQKRAEGQSLERIARDLGYGSRYSLEAMMQKLIMVEEIN” the “soluble on expression in E. coli” value was “not soluble”. For “MIVGEDQLWGRRALEFVDSVERLEAPALISRFESLIASCGFTAYIMAGLPSRNAGLPELTLANGWPRDWFDLYVSENFSAVDPVPRHGATTVHPFVWSDAPYDRDRDPAAHRVMTRAAEFGLVEGYCIPLHYDDGSAAISMAGKDPDLSPAARGAMQLVSIYAHSRLRALSRPKPIRRNRLTPRECEILQWAAQGKTAWEISVILCITERTVKFHLIEAARKLDAANRTAAVAKALTLGLIRL”, the “soluble on expression in E. coli” value was “not soluble”. With “GMEFYEVIKKRKSIKKFEQTAIDRDKLLKIIDMAMRAPSWKNKTPYKFIVVESDKLKLDIANAIENKTSAASEAVLNSPMTIVAVANPEESGDVSGKEIYLIDTAIAMEHIVLGATDEGYGTCWIAAFNENKIKEALKIPDNLRVVALTPLGVPKDSAEDEPHHPKKDMDEYLYIDKWGTSFMESNVKILEKN” the “soluble on expression in E. coli” value was “soluble”. For “MKSVVLGILSSISDEVNLEMIKKYDVKLARRISGGGSVFHDMGNINYTFITSGQGGIDYLYGYLLRGTISAIENLVNDRVEVYNETDIAFKGYKISGNAGYINEDKYLLHGTLLVSSNLDI”, the “soluble on expression in E. coli” value was “soluble”. For “GGALGGSIAFETVDAQDLLEGNQKLGMMLRSGYASASDGYLGGTSVYGLLSDHLGILVDVSGQNEDDYRGGSGEDALYTATKDRNYFAKLSLLDLEGHTLKVGATHNKSSGHYVSGSTGSDMGAPSASQKADFQVLKRDTYTLDHRYNPENPYVDIQTKIYRNERHLENRTSLLDVTSQTTGGSLKNVMTLDSGIFQHRFTLGGDYEQEKGIVENSLYENEAKTTGLFLQGLTRVEALKLHYGLRWDDYKSDFGPKTLSGDELSPNFGAEYELLSGLALFSNYSESVRAGGIIPLQWMAGITQSANFNNGEAFKPEISKQKEGGIKYSTRGVFADNDRMKLSATLFKTTIENLIDYTRSGGPSGKITKIFNQEEDLISKGYELKASWEKEAWATSLGFIHVEMEEGGEPVVVSRRKAASMGDRFVWDVSYQMTPELLLGYTLHAVDKLDDVPALYRRAGYVTHDLELQWRPASIKGLTWSLAVHNLLDKSYYEQSSFESGDSIVEEAGRDVRLAVKYKF”, the “soluble on expression in E. coli” value was “not soluble”. In the case of “MLLSPPTNCRFFCFLYFPKVSSSSWEEDGFDARTLLSTPTDSSGFSLYVFSVLFCFSNLL”, the “soluble on expression in E. coli” value is reported as “not soluble”. With “MKSKLICIIMVIAFQAHFTMTVKADSVGEEKLQNNTQAKKTPADLKALPDSCEAKDFYKNFKILDMTKDKLGVTHYTLALSSGGYLTDNDEIKVHVTPDNKITFINGDLQQGQLRITNQIKITEKNAIEKAFEAIGQSEAHVKSYVGNPVKEKEIILNSRTKRLVYNIKLIFAEPEVASWIVQVDVETGAILKKQNMLSEVERADTHKDFQALGKGANRLLQRPLHVMKINDLFYLVDRTHKGLIRTFDLKHNTDTSFGKVVSNKTNMFTDPEFSSAVDAHFYASEVYEYYKNVHQLESLDGKGGEIDSFVHYGLNCNNAFWDGQEILYGDGDKKNFKPFSCAKTIVGHELTHAVIQYSAGLEYEGQSGALNESFADVFGYFIAPNHWLIGEDVCVRGSRDGRIRSIKDPDKYNQAAHMKDYESLPLTEEGDWGGVHYNSGIPNKAAYNTITKLGKEKTEQLYFRALKYYLTKKSQFTDAKKALQQAAKDLYGEDASKKVAEAWEAVGVN” the “soluble on expression in E. coli” value was “not soluble”.
